The target of the assay is truncated cycD1 (16-267) (human, UniProt P24385 16-267). As to the kind of experiment: crystal structure.
truncated cycD1 (16-267), sequence (P24385 16-267): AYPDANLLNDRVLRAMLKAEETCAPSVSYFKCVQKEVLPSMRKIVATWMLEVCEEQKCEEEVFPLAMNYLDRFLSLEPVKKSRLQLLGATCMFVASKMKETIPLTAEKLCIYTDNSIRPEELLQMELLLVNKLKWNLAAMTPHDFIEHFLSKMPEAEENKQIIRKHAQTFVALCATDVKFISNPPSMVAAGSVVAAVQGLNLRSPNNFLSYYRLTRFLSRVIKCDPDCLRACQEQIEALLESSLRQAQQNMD

B1: p27(3E) (p27^KID 25-93 with glutamate phosphomimetics at Y74, Y88 and Y89) (domain or fragment, human, UniProt P46527 25-93, looked up)
chain: KPSACRNLFGPVDHEELTRDLEKHCRDMEEASQRKWNFDFQNHKPLEGKEEWQEVEKGSLPEFEERPPR
As to B1, the binding result is recorded as “binds”.

The values are drawn from publication PMC7592119 (Science (New York, N.Y.), 2019).
